# Literature values as cited in publication PMC7843923.
# Legend:
# [1] = biological target: Unc5D (UniProt Q6UXZ4)
# [2] = biological target: Latrophilin3 (UniProt Q9HAR2)
# Sequence of UniProt Q9HAR2 (Q9HAR2 20-862): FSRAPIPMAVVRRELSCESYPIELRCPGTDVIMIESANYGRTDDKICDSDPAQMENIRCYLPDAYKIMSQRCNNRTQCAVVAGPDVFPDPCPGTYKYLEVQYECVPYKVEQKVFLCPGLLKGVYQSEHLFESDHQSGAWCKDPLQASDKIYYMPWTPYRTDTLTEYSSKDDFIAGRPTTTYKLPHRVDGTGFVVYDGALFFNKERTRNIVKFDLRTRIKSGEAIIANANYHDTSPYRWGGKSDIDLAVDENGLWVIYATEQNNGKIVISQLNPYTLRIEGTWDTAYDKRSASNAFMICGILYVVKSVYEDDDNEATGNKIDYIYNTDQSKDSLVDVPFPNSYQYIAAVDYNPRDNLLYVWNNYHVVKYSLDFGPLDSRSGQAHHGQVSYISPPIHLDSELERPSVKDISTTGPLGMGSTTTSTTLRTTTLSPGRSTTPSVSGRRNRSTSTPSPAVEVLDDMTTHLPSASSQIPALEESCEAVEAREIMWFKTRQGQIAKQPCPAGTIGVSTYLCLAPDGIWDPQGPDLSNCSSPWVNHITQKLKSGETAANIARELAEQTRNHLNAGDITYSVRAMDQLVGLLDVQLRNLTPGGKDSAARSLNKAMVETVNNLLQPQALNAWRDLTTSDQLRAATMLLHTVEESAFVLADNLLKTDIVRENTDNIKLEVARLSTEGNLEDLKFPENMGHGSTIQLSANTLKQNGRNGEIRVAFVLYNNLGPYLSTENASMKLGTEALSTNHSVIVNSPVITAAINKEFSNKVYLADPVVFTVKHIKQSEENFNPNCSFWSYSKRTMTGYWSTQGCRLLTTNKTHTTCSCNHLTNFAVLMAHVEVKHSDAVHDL
# Sequence of UniProt Q6UXZ4 (Q6UXZ4 33-379): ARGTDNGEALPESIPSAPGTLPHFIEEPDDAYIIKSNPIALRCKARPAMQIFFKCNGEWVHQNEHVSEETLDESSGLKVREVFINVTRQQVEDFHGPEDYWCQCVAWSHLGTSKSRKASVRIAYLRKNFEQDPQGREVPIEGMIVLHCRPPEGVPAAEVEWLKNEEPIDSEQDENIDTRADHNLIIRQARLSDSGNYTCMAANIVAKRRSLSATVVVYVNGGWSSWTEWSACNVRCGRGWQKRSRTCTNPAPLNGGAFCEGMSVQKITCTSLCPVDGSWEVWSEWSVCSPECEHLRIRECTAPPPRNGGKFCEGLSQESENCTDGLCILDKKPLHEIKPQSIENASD
Kd [1] [nM],Kd [2] [nM],Substance
310,–,FLRT2 (from UniProt O43155)
–,40,FLRT (from UniProt Q9NZU0)
